Data from patent US20010029293A1 (ICOS, published 2001).

Assays:
[1] = target: T1, soluble human ICAM-R (human, UniProt P32942 30-485); experiment: ELISA on coated shICAM-R
T1 construct: baculovirus/Sf-9 product; also called shICAM-R; ICAM-Rt1
T1 chain: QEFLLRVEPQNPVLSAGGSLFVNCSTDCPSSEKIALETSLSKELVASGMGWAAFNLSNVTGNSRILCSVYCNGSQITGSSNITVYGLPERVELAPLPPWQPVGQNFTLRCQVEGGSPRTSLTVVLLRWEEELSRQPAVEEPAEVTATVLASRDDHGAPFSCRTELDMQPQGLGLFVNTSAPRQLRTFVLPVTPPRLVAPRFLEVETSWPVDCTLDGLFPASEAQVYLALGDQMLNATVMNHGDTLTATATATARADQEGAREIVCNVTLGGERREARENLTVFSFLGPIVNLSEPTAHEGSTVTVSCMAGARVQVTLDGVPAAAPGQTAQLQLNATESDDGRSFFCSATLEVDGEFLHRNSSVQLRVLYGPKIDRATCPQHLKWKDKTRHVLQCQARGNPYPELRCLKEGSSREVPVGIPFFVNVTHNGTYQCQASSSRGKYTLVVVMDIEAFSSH

[2] = target: T1, soluble human ICAM-R; experiment: blocking of biotinylated murine ICR-8.1 (competitor) binding to ICAM-R
[3] = target: T2, LFA-1 (CD11a/CD18) on cells (human, UniProt P20701 26-1170; P05107 23-769); experiment: cell adhesion to coated shICAM-R, peptide 1-2 mg/ml
T2 construct: whole, on cells; on SKW3, JY, HL-60 cells, neutrophils, or CHO/COS transfectants; also called CD18/CD11a

[4] = target: T2, LFA-1 (CD11a/CD18) on cells; experiment: not described
[5] = target: T3, VLA-4 (α4/β1) on cells (UniProt P13612 34-1032; P05556 21-798, limits assumed); experiment: not described
T3 construct: whole, on cells; on Jurkat cells, T cells or COS transfectants

[6] = target: Mac-1 (CD11b/CD18) on cells (UniProt P11215 17-1152; P05107 23-769); experiment: neutrophil adhesion
[7] = target: T2, LFA-1 (CD11a/CD18) on cells; experiment: JY cell adhesion to plate-bound chimera
[8] = target: T2, LFA-1 (CD11a/CD18) on cells; experiment: neutrophil adhesion
[9] = target: T4, human ICAM-R (human, UniProt P32942 30-547); experiment: FACS, 5 µg/ml
T4 construct: On transfected L, CV-1 or COS cells, or native on human leukocytes and cell lines; also called ICAM-3; CDw50
T4 chain: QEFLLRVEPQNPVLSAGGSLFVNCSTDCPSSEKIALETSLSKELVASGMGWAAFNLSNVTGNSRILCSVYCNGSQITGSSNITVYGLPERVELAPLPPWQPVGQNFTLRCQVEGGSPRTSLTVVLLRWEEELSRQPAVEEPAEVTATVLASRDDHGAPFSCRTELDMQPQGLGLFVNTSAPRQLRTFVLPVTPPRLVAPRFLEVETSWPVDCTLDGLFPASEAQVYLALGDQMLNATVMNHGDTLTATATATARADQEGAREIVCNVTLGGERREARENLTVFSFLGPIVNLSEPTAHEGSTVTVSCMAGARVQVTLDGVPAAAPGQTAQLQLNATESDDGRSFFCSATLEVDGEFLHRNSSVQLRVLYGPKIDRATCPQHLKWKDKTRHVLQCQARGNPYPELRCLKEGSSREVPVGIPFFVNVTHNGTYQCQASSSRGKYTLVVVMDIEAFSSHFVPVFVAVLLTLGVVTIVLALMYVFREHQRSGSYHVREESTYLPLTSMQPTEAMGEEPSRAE

[10] = target: T5, chimeric Protein 3 (ICAM-R domains 1-3 / ICAM-1) (human, UniProt P05362 317-532); experiment: FACS, 5 µg/ml
T5 construct: range 317-532; on COS cells; also called Protein number 3; RD1-3.1D4-5

[11] = target: T6, human ICAM-1 (human, UniProt P05362 28-532); experiment: FACS, 5 µg/ml
T6 construct: whole, on cells; on transfected L or COS cells

[12] = target: T4, human ICAM-R; experiment: cell-based or functional assay

T2 sequence (P20701 26-1170, chain 1 of 2): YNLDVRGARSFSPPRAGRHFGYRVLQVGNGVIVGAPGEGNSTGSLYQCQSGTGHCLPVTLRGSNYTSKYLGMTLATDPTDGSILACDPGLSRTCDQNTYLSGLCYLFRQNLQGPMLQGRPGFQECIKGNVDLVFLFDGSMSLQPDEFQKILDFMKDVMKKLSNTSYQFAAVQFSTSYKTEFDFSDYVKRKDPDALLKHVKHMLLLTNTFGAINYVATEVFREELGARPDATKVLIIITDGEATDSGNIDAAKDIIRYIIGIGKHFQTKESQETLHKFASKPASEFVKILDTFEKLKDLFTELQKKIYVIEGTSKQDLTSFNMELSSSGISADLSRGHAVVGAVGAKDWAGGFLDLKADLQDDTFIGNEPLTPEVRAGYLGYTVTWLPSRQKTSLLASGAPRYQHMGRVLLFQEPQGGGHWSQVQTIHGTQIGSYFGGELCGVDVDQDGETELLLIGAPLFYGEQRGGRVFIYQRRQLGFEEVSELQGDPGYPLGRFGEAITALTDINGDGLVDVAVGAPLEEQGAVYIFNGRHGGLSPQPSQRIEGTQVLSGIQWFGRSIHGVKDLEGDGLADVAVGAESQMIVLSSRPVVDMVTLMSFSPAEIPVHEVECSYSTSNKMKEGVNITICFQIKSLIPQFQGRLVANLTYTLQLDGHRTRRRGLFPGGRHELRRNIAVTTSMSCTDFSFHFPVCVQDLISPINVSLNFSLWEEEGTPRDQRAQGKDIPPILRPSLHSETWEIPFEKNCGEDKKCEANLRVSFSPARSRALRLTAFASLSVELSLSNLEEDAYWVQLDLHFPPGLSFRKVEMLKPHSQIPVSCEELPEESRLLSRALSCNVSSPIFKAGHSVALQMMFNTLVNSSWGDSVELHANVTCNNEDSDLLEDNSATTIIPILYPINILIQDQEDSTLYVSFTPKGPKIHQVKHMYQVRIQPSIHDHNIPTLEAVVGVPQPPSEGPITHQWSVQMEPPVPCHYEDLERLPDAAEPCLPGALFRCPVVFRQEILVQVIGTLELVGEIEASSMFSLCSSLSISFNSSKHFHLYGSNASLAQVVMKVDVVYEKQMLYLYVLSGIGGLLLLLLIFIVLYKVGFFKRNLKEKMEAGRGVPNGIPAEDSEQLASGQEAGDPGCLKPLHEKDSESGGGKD
T2 sequence (P05107 23-769, chain 2 of 2): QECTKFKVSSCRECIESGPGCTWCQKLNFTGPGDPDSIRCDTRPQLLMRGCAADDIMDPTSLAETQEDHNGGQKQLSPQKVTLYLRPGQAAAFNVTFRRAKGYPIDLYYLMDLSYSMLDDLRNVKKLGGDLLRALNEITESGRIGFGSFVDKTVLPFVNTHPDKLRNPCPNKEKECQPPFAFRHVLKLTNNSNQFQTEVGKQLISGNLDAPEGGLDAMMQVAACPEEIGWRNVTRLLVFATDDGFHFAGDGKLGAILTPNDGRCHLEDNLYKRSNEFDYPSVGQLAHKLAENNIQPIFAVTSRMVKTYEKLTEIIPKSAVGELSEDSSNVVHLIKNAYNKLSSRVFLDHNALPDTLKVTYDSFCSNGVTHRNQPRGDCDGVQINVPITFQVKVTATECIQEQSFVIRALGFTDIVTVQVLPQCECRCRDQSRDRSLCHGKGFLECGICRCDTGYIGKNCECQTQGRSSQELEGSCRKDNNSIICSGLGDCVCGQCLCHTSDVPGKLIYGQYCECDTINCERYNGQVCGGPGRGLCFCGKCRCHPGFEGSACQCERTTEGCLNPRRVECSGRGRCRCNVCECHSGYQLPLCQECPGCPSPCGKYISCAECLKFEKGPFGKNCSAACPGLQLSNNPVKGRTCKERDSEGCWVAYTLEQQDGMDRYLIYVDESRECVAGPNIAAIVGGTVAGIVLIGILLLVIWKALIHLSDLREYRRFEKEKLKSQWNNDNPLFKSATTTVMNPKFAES
T6 sequence (P05362 28-532): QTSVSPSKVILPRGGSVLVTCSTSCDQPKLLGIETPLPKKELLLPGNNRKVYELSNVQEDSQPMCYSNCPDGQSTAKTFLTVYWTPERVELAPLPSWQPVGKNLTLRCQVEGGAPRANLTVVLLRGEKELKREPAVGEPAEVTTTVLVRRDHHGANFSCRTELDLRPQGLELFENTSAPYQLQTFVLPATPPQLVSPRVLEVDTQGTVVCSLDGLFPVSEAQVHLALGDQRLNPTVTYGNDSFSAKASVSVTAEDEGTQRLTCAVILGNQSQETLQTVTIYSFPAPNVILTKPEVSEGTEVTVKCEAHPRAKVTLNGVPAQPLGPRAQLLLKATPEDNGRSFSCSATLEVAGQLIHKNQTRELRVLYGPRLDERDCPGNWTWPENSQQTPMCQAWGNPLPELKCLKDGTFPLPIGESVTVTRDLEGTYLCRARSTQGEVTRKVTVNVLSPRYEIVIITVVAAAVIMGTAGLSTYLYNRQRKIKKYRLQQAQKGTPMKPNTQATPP

B1: ICR-8.1 miHuVHI/HuVK (antibody, human IgG4, V domains shown)
VH: QIQLVQSGAEVKKPGASVKVSCKASGYTFTDCIILWVRQAPGQGLEWMGKINPYFGTTTYAQKFQGRVTITADTSTSTAYMELSSLRSEDTAVYYCARKEAYPDAMDYWGQGTLVTVSS
VL: DIVMTQSPLSLPVTPGEPASISCRSSQSLVHSNGDTYLHWYLQKPGQSPQLLIYKVSNRFSGVPDRFSGSGSGTDFTLKISRVEAEDVGVYYCSQSTHVPYTFGQGTKVEIK
notes: human IgG4 and human kappa constant regions
fold improvement in binding over the other recombinant ICR-8.1 antibodies [1]: ~2 fold
fold less well in competition than murine ICR-8.1 [2]: ~2 fold

B2: ICR-8.1 miHuVHI/MuVK (antibody, human IgG4, V domains shown)
VH: QIQLVQSGAEVKKPGASVKVSCKASGYTFTDCIILWVRQAPGQGLEWMGKINPYFGTTTYAQKFQGRVTITADTSTSTAYMELSSLRSEDTAVYYCARKEAYPDAMDYWGQGTLVTVSS
VL: DAVMTQTPLSLPVSLGDQASISCRSSQSLVHSNGDTYLHWYLQKPGQSPQLLIYKVSNRFSGVPDRFSGSGSGTDFTLKLSRVEAEDLGVYFCSQSTHVPYTFGGGTKLEIK
notes: as for B1
fold improvement in binding over the other recombinant ICR-8.1 antibodies [1]: ~2 fold
fold less well in competition than murine ICR-8.1 [2]: ~2 fold

B3: ICAM-R peptide 271-276 (peptide)
peptide: GERREA
% Inhibition CD18-Dependent Binding (SKW3) [3]: 0%

B4: ICAM-R/IgG variant D231H-Ig (Fc fusion)
chain: QEFLLRVEPQNPVLSAGGSLFVNCSTDCPSSEKIALETSLSKELVASGMGWAAFNLSNVTGNSRILCSVYCNGSQITGSSNITVYGLPERVELAPLPPWQPVGQNFTLRCQVEGGSPRTSLTVVLLRWEEELSRQPAVEEPAEVTATVLASRDDHGAPFSCRTELDMQPQGLGLFVNTSAPRQLRTFVLPVTPPRLVAPRFLEVETSWPVDCTLDGLFPASEAQVYLALGHQMLNATVMNHGDTLTATATATARADQEGAREIVCNVTLGGERREARENLTVFSFLGPIVNLSEPTAHEGSTVTVSCMAGARVQVTLDGVPAAAPGQTAQLQLNATESDDGRSFFCSATLEVDGEFLHRNSSVQLRVLYGPKIDRATCPQHLKWKDKTRHVLQCQARGNPYPELRCLKEGSSREVPVGIPFFVNVTHNGTYQCQASSSRGKYTLVVVMDIEAFSSH
notes: not shown: human IgG1 hinge, CH2, CH3
binding result [4]: binds
binding result [5]: binds

B5: ICAM-R/IgG chimera E37/A (Fc fusion)
chain: QEFLLRVEPQNPVLSAGGSLFVNCSTDCPSSEKIALATSLSKELVASGMGWAAFNLSNVTGNSRILCSVYCNGSQITGSSNITVYGLPERVELAPLPPWQPVGQNFTLRCQVEGGSPRTSLTVVLLRWEEELSRQPAVEEPAEVTATVLASRDDHGAPFSCRTELDMQPQGLGLFVNTSAPRQLRTFVLPVTPPRLVAPRFLEVETSWPVDCTLDGLFPASEAQVYLALGDQMLNATVMNHGDTLTATATATARADQEGAREIVCNVTLGGERREARENLTVFSFLGPIVNLSEPTAHEGSTVTVSCMAGARVQVTLDGVPAAAPGQTAQLQLNATESDDGRSFFCSATLEVDGEFLHRNSSVQLRVLYGPKIDRATCPQHLKWKDKTRHVLQCQARGNPYPELRCLKEGSSREVPVGIPFFVNVTHNGTYQCQASSSRGKYTLVVVMDIEAFSSH
notes: also called ICAM-R E37/A; not shown: human IgG1 hinge, CH2, CH3
binding result [6]: binds
binding result [7]: no binding

B6: ICAM-R/His fusion protein (receptor, not shown: small tags and cut ends)
chain: QEFLLRVEPQNPVLSAGGSLFVNCSTDCPSSEKIALETSLSKELVASGMGWAAFNLSNVTGNSRILCSVYCNGSQITGSSNITVYGLPERVELAPLPPWQPVGQNFTLRCQVEGGSPRTSLTVVLLRWEEELSRQPAVEEPAEVTATVLASRDDHGAPFSCRTELDMQPQGLGLFVNTSAPRQLRTFVLPVTPPRLVAPRFLEVETSWPVDCTLDGLFPASEAQVYLALGDQMLNATVMNHGDTLTATATATARADQEGAREIVCNVTLGGERREARENLTVFSFLGPIVNLSEPTAHEGSTVTVSCMAGARVQVTLDGVPAAAPGQTAQLQLNATESDDGRSFFCSATLEVDGEFLHRNSSVQLRVLYGPKIDRATCPQHLKWKDKTRHVLQCQARGNPYPELRCLKEGSSREVPVGIPFFVNVTHNGTYQCQASSSRGKYTLVVVMDIEAFSSH
notes: CHO product
binding result [8]: binds
binding result [6]: binds

B7: ICAM-R/IgG variant E37T-Ig (Fc fusion)
chain: QEFLLRVEPQNPVLSAGGSLFVNCSTDCPSSEKIALASSLSKELVASGMGWAAFNLSNVTGNSRILCSVYCNGSQITGSSNITVYGLPERVELAPLPPWQPVGQNFTLRCQVEGGSPRTSLTVVLLRWEEELSRQPAVEEPAEVTATVLASRDDHGAPFSCRTELDMQPQGLGLFVNTSAPRQLRTFVLPVTPPRLVAPRFLEVETSWPVDCTLDGLFPASEAQVYLALGDQMLNATVMNHGDTLTATATATARADQEGAREIVCNVTLGGERREARENLTVFSFLGPIVNLSEPTAHEGSTVTVSCMAGARVQVTLDGVPAAAPGQTAQLQLNATESDDGRSFFCSATLEVDGEFLHRNSSVQLRVLYGPKIDRATCPQHLKWKDKTRHVLQCQARGNPYPELRCLKEGSSREVPVGIPFFVNVTHNGTYQCQASSSRGKYTLVVVMDIEAFSSH
notes: as for B4
binding result [4]: no binding

B8: ICAM-R peptide 230-234 (GDQML) (peptide)
peptide: GDQML
% Inhibition CD18-Dependent Binding (SKW3) [3]: 0%

B9: ICAM-1 peptide 70-74 (DGQST) (peptide)
peptide: DGQST
% Inhibition CD18-Dependent Binding (SKW3) [3]: 0%

B10: ICR-1.1 antibody with HuVK (hybrid) (antibody, human IgG4, V domains shown)
VH: QVQLQQSGAELAKPGASVKMSCKASGYTFTVYWMHWVKQRPGQGLEWIGYINPNTDYTEYNQRFQDKATLTADKSSSTAYMQLSSLTSEDSAVYYCARWGGNSYGLDYWGQGTSVTVSS
VL: DIQMTQSPSSLSASVGDRVTITCSASSSVSYIYWYQQKPGKAPKLLIYLTSNLASGVPSRFSGSGSGTDFTLTISSLQPEDFATYYCQQWKSIPLTFGQGTKLEIK
notes: human IgG4 and human kappa constant regions; also called HuVK version
fold deficit in binding against the murine progenitor chain [1]: 2 fold

B11: domain deletion ICAM-R/IgG chimera with ICAM-R domains 3, 4 and 5 (Fc fusion)
chain: VLPVTPPRLVAPRFLEVETSWPVDCTLDGLFPASEAQVYLALGDQMLNATVMNHGDTLTATATATARADQEGAREIVCNVTLGGERREARENLTVFSFLGPIVNLSEPTAHEGSTVTVSCMAGARVQVTLDGVPAAAPGQTAQLQLNATESDDGRSFFCSATLEVDGEFLHRNSSVQLRVLYGPKIDRATCPQHLKWKDKTRHVLQCQARGNPYPELRCLKEGSSREVPVGIPFFVNVTHNGTYQCQASSSRGKYTLVVVMDIEAFSSH
notes: as for B4
binding result [7]: no binding

B12: ICR-8.1 (antibody, mouse IgG1, V domains shown)
VH: EIQLQQTGPELVKPGASVKISCKASGYSFTDCIILWVKQSHGKGLEWIGKINPYFGTTTYNLKFKGKATLTVDKSSSTAHMQLNSLTSEDSAVYYCARKEAYPDAMDYWGQGTSVTVSS
VL: DAVMTQTPLSLPVSLGDQASISCRSSQSLVHSNGDTYLHWYLQKPGQSPQLLIYKVSNRFSGVPDRFSGSGSGTDFTLKLSRVEAEDLGVYFCSQSTHVPYTFGGGTKLEIK
notes: murine IgG1, kappa; also called 46D7E; ATCC HB 11232
percent positive COS cell transfectants [9]: 48.9%
percent positive COS cell transfectants [10]: 44.9%
percent positive COS cell transfectants [11]: 1.08%
IC50 (µg/ml), inhibition of SEA-induced PBL proliferation by plate-bound antibody [12]: 1 µg/mL

B13: ICAM-R peptide 32-38 (peptide)
peptide: EKIALET
% Inhibition CD18-Dependent Binding (SKW3) [3]: 0%
